From patent US10428347B2, “Herbicide-detoxifying enzymes and uses thereof” (priority 2017, dated 2019)

Columns and labels:
[1] = Absorbance spectra assay of mecoprop degradation by ChD or CAC; type: biochemical; settings: mecoprop 200 mg/L alone (no enzyme), 50 mM HEPES pH 7, one hour at 37° C.
Experimental: (§1) Small scale (1 mL) assays were performed to evaluate the ability of ChD and CAC to degrade MCPA-4 amine or mecoprop.
(§2) MCPA-4 amine and mecoprop have absorbance maxima (Amax) at approximately 230 and 280 nm. […] MCPA-4 amine or mecoprop end product generation is directly proportional to the degradation MCPA-4 amine or mecoprop, respectively.

[2] = Absorbance spectra assay of MCPA-4 amine degradation by ChD or CAC; type: biochemical; settings: MCPA-4 amine 200 mg/L alone (no enzyme), 50 mM HEPES pH 7, one hour at 37° C.
Experimental: as §1, §2

[3] = Sorbitol dehydrogenase enzyme activity (NADH production at 340 nm); type: biochemical; settings: for enzyme activity level: NAD^+ and sorbitol, absorbance readings at 340 nm at 5 min after the start of the reaction; for regeneration of NADH (NADH production, 0-36 min): vs no enzyme control and background A64
From the text: To determine enzyme activity for sorbitol dehydrogenase in the production samples, reactions were set up with NAD^+, sorbitol and the sorbitol dehydrogenase enzyme collected in supernatant derived from the Bacillus subtilis A64 cultures. Absorbance at 340 nm was monitored with a BioTek SYNERGY HTX plate reader (BioTek Industries Inc.). […] The extinction coefficient of NADH at 340 nm (6220 M^−1 cm^−1) was used to estimate the enzyme activity of the sorbitol dehydrogenase enzyme. The enzyme activity was compared to commercially available sorbitol dehydrogenase enzyme produced from sheep liver (S-3764, Sigma-Aldrich).
NADH production was measured and reported as an average of 7 measurements and reported over a time series (0-36 min.) for the sorbitol dehydrogenase GutB (SDH GutB), the sorbitol dehydrogenase from sheep liver (SDH control) and compared to the A64 filtrate and no enzyme treatments both used as negative controls in the enzyme assay.

[4] = system: soybean seedlings; assay: Spray of enzyme-treated dicamba solution onto soybean seedlings; type: in vivo; settings: 208 μM dicamba, immobilized enzyme, 30° C., soybean seedlings, one week
Experimental: Salicylate monooxygenase (SM, SEQ ID NO: 21) and hydroxyphenylacetate monooxygenase (HPAM, SEQ ID NO: 30) were immobilized on particles. […] Aliquots (1 ml) were taken from incubated samples at 0 minutes, 10 minutes, 30 minutes, 1 hour, 5 hours, 24 hours and 30 hours after the introduction of SM and immediately frozen to stop the detoxification reaction. NADPH consumption was quantified by measuring loss of absorbance at 340 nm using a spectrophotometer. Results for SM are shown in panel A of FIG. 10 and results for HPAM are shown in panel A of FIG. 11. Consumption of NADPH is proportional to the degradation of dicamba.
Immediately after taking the absorbance measurements, the 1 ml aliquots were mixed with a nonionic organosilicone surfactant copolymer (0.1% SILWET L77) and 200 μL of the mixture was sprayed onto 2.5-week-old soybean seedlings (six plants per treatment group, on average). The use of the surfactant ensured even distribution of the solutions on the plants. Control plants were sprayed with water+surfactant alone or dicamba+surfactant alone. After one week, the degree of herbicide damage or the degree of protection from dicamba-induced injury (in plants treated with SM) was assessed visually.

[5] = system: lentil plants; assay: Lentil seeds coated with immobilized enzyme, grown in dicamba-containing soil; type: in vivo
Experimental: For each treatment group, eighteen lentil seeds were coated with immobilized salicylate monooxygenase (SM, SEQ ID NO: 21) or hydroxyphenylacetate monooxygenase (HPAM, SEQ ID NO: 30), or with a water-only control (H2O) or a control containing only the particles used for immobilization, without any enzyme (“Particle Alone”). […] 50 ml of water was selected as this is the saturation point of this soil at this scale. Herbicides were allowed to sit in the soil for 24 hours before planting of coated seeds. Germination rate was measured at one week and root and shoot lengths were measured after two weeks.
Further data illustrating the protective effects of salicylate monooxygenase (SM) and hydroxyphenylacetate monooxygenase (HPAM) on lentil plants grown in dicamba-containing soil are provided in FIGS. 6-9. Lentil seeds were treated as described above with water alone, particle alone, or enzyme immobilized on a particle. […] Growth (shoot and root length) was measured at two weeks.

[6] = system: soybean plants; assay: Trifoliate damage scoring of soybean treated with SM1-dicamba reaction products; type: in vivo; settings: V1 soybean (Morsoy Xtra), 100 μL reaction product diluted 1:24 with 0.01% SILWET L-77 on trifoliate leaves, 6 plants; Time (hours) 2; scale 0-5
From the text: These SM1-dicamba degradation products were applied to soybean seedlings (variety, Morsoy Xtra). […] The plants were scored based on trifoliate damage using the scale as described in Table 27.

[7] = Experimental: A Bacillus subtilis (A64) control reaction, which was supernatant with no SM1 enzyme was performed in parallel. The reactions were incubated at 37° C. with 400 rpm stirring for two hours. Aliquots of the reactions were collected at time 0 (T0), 1 hour, and 2 hours, and frozen at −80° C.
HPLC column (Kinetex® 5 μm C18 100 Å, LC Column 50×4.6 mm) was equilibrated for 15 minutes with 35% acetonitrile and 65% 10 mM ammonium acetate with 0.1% formic acid in water. A volume of 10 μL of each sample was injected into Waters 2695 Separations Module with a 2996 Photodiode Array Detector. Samples were run isocratically (35% acetonitrile and 65% 10 mM ammonium acetate with 0.1% formic acid in water) for 2 minutes. […] An average of 3 measurements was run for each treatment sample.
The HPLC results as reported in FIG. 2 are the average of 3 sample measurements.

Cc1cc(Cl)ccc1OC(C)C(=O)[O-].[K+] (racemic) [Mecoprop, Potassium (RS)-2-(2-methyl-4-chlorophenoxy)propionate, reference compound]
Absorbance Maxima at Wavelength (λ) 230 [1]: 1.723 | Absorbance Maxima at Wavelength (λ) 252 [1]: 0.2562 | Absorbance Maxima at Wavelength (λ) 280 [1]: 1.214

Cc1cc(Cl)ccc1OCC(=O)O [MCPA-4-Amine, 2-methyl-4-chlorophenoxyacetic acid, reference compound]
Absorbance Maxima at Wavelength (λ) 230 [2]: 1.739 | Absorbance Maxima at Wavelength (λ) 252 [2]: 0.2573 | Absorbance Maxima at Wavelength (λ) 280 [2]: 1.506

B1: GutB sorbitol dehydrogenase: sorbitol dehydrogenase from Bacillus subtilis strain 168, SEQ ID NO: 288, cofactor-regenerating enzyme (protein, listed as Bacillus subtilis)
chain: MTHTVPQNMKAAVMHNTREIKIETLPVPDINHDEVLIKVMAVGICGSDLHYYTNGRIGNYVVEKPFILGHECAGEIAAVGSSVDQFKVGDRVAVEPGVTCGRCEACKEGRYNLCPDVQFLATPPVDGAFVQYIKMRQDFVFLIPDSLSYEEAALIEPFSVGIHAAARTKLQPGSTIAIMGMGPVGLMAVAAAKAFGAGTIIVTDLEPLRLEAAKKMGATHIINIREQDALEEIKTITNDRGVDVAWETAGNPAALQSALASVRRGGKLAIVGLPSQNEIPLNVPFIADNEIDIYGIFRYANTYPKGIEFLASGIVDTKHLVTDQYSLEQTQDAMERALQFKNECLKVMVYPNR
enzyme activity level [3]: 207 U/mL | regeneration of NADH (NADH production, 0-36 min) [3]: sufficient ability to reduce NAD to NADH

B2: HPAM: hydroxyphenylacetate monooxygenase from Bacillus cereus BGSC 6E1, amino acid SEQ ID NO: 30 (protein, listed as Bacillus cereus)
chain: MAIRTGEQYIEGLRKRNPEIWIGGRKVTDVVNEDVFREPIIQIANLYDMQHNPEYQDKITHICEETGERVSNAFLVPRNYEDLKVRRELFEVWAKATYGLMGRTPDFLNVTVTSMASNSWFFEKFNPEWGANIKNYYKHIRDNDLFLTHAIINPQNDRSKASHQQEDETMHLGVVSETAEGMYVSGAKMLATLAPITDEVIIYSYPSFKPGDERHAISFAVPIDAPGLRILCREPMQDGKRSLFDHPLASRFEEMDALLVFHNVFIPWDKVFIYQSVEAGNQLYPKTGIGHQPAHQSGVRGLVKLSFAAEVAMKLADSIGVDGFLNVQNQLAELMQDVETIRALLQVAEYEYETNSYGEVIPARLPLDTIRSLLPKMYPRAIEIIQTIGAGGLLMSPTGADFMNPEIHDDMQKYYIGREGVSSEERVRLFKLAWDLCGEAFGQRLLQYERYYSGDPVRKMGMFYNAYKKQQTFSLVNNALQSSSSEGALS
incubation time of enzyme with dicamba giving plants equivalent to the water control [4]: 30 min | germination rate ([5]; lentil seeds coated with immobilized enzyme, soil with dicamba 0.1× or […] label rate, one week, vs water and particle-alone controls): positive effect | shoot length ([5]; two-week-old lentil, soil with dicamba 0.1× label rate (0.588 mg/L), vs water only or particle only controls (FIG. 6, FIG. 8)): longer shoot lengths

B3: SDH control: commercially available sorbitol dehydrogenase enzyme produced from sheep liver (S-3764, Sigma-Aldrich) (protein, UniProt P07846 1-354, looked up)
Sorbitol dehydrogenase: AKPAAENLSLVVHGPGDLRLENYPIPEPGPNEVLLKMHSVGICGSDVHYWQGRIGDFVVKKPMVLGHEASGTVVKVGSLVRHLQPGDRVAIQPGAPRQTDEFCKIGRYNLSPTIFFCATPPDDGNLCRFYKHNANFCYKLPDNVTFEEGALIEPLSVGIHACRRAGVTLGNKVLVCGAGPIGLVNLLAAKAMGAAQVVVTDLSASRLSKAKEVGADFILEISNESPEEIAKKVEGLLGSKPEVTIECTGVETSIQAGIYATHSGGTLVLVGLGSEMTSVPLVHAATREVDIKGVFRYCNTWPMAISMLASKSVNVKPLVTHRFPLEKALEAFETSKKGLGLKVMIKCDPSDQNP
enzyme activity level [3]: 1447 U/mL | regeneration of NADH (NADH production, 0-36 min) [3]: greater regeneration of NADH

B4: SM1: salicylate monooxygenase from Bacillus cereus strain B377, amino acid SEQ ID NO: 251 (nucleotide SEQ ID NO: 243) (protein, listed as Bacillus cereus)
chain: MGKEKKYDAIVVGAGPVGLVAGLALQKKGISTLVIEADSFGRPRPGSRAIYLHSASLKLLEETSEGLGFTLAHNGIIWPVKRTFYKGKEVYVRDYGKDENLKFNRLPHFTALHQDEIEKHMYEACIKEGVEFLWDAPVKKLHITDSGVELTITNDEILKAQYVIGCDGARSIVREEAGLTFEGPRTADTFIVVDAKEDETDPLPLERIFHYQHPAMEGRNVMFVPFKGGWRIDLQLLESDNPDDYTNIESVKTWLPKVMDAKYAERITWVSSYRFHQVVANSFTDEKRRVLLAGEAAHLFAPFGARGLNSGIPDAVLAARGIEKALHSHSEEERVEAIEAAAKERRIAAQWNRDASTTALHHLQGSSPEMNMKRDIAASLVSIVPRLGRWLDEGPYGPKFGPPELTTKY
average trifoliate damage score [6]: 2.8 | Percent Dicamba Concentration Relative to T0 control ([7]; HPLC, Time 2 hours): 84.3% | dicamba concentration (HPLC) ([7]; dicamba 100 ppm, 250 μL SM1 enzyme, 0.5 mM NADH, HEPES pH 7.0, 1 hour of incubation (FIG. 17)): decreased concentrations | decrease in dicamba concentration (HPLC) ([7]; dicamba 100 ppm, 250 μL SM1 enzyme, 0.5 mM NADH, HEPES pH 7.0, 2 hours of incubation (FIG. 17)): approximately 50%
